# Patent US20220372154A1 (APEXIGEN, published 2022)
# T1: human TNFR2 expressed on cells (human, UniProt P20333 23-461)
# T1 construct: whole, on cells; also called hTNFR2 (cell); CHO-TNFR2
# T1 sequence (looked up): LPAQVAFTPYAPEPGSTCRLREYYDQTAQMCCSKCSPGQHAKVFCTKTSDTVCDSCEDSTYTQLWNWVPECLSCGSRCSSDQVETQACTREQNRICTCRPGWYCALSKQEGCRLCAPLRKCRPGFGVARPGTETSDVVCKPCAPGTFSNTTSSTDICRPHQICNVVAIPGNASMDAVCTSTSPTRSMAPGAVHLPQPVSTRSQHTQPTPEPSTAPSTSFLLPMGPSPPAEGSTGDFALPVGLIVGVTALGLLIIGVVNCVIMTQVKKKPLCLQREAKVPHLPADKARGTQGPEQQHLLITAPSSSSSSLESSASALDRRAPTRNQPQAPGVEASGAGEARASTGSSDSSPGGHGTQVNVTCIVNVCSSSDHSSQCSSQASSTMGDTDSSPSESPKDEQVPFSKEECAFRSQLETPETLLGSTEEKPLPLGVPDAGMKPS
# T2: cynomolgus TNFR2-His tagged protein (cynomolgus, UniProt A0A2K5VET2 132-366)
# T2 construct: also called Cyno TNFR2; cynomolgus TNFR2 protein; not shown: His tag
# T2 sequence: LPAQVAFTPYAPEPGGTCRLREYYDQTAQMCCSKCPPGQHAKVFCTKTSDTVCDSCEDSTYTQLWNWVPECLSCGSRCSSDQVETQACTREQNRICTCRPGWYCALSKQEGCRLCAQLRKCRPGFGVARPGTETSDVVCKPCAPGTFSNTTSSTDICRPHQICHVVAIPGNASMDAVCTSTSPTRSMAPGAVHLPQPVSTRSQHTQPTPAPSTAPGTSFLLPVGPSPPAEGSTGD
# T3: human TNFR2-His tagged protein (soluble) (human, UniProt P20333 23-257)
# T3 construct: also called hTNFR2 (soluble); soluble TNFR2-His; not shown: His tag
# T3 sequence (looked up): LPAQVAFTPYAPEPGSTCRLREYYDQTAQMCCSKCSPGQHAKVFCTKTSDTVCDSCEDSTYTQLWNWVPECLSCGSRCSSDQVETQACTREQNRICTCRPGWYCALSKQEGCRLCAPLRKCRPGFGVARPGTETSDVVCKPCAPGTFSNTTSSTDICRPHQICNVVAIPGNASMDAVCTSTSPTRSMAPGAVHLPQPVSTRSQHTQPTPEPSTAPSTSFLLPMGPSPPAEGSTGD
# T4: TNFR-Fc (UniProt P20333 23-257, limits assumed)
# T4 construct: Printed only as TNFR-Fc; not shown: Fc part
# T4 sequence (looked up): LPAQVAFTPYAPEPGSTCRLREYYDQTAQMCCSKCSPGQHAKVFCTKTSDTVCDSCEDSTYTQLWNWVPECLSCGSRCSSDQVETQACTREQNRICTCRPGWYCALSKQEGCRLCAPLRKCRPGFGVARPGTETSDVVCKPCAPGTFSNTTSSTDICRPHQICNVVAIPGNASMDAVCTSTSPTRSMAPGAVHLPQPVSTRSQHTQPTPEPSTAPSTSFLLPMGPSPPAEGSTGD
# T5: soluble mouse TNFR2 (mouse, UniProt P25119 23-258, limits assumed)
# T5 sequence (looked up): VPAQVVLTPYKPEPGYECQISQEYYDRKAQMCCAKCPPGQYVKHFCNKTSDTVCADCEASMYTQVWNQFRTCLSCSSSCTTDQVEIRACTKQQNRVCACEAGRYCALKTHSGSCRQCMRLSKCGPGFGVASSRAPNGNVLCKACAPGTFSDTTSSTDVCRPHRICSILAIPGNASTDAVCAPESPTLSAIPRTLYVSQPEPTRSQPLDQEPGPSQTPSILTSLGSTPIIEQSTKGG
# T6: TNFR2 PLAD or CRD1 peptide (aa 17-54 of mature TNFR2) (human)
# T6 construct: Range counted on mature TNFR2
# T6 peptide: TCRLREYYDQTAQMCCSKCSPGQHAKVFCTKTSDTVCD
# T7: human TNFR1-His tagged protein (human, UniProt P19438 30-211, limits assumed)
# T7 construct: also called soluble human TNFR1; not shown: His tag
# T7 sequence (looked up): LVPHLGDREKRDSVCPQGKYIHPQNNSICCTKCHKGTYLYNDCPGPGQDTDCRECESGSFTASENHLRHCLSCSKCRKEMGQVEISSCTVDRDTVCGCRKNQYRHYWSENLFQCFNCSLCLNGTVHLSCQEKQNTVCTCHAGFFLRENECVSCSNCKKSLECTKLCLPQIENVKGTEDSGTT
# Key:
# [1] = target: T1, human TNFR2 expressed on cells; assay: cell binding on TNFR2-overexpressing (OE) cells
# [2] = target: T1, human TNFR2 expressed on cells; assay: flow cytometry, cell-expressed human TNFR2
# [3] = target: T2, cynomolgus TNFR2-His tagged protein; assay: ELISA, cynomolgus TNFR2
# [4] = target: T3, human TNFR2-His tagged protein (soluble); assay: ELISA, soluble human TNFR2
# [5] = target: T4, TNFR-Fc; assay: TNF-α blocking ELISA (soluble)
# [6] = target: T1, human TNFR2 expressed on cells; assay: blocking of biotinylated TNF-α on TNFR2-CHO cells, flow cytometry
# Description: TNFR2-overexpressing CHO cells were plated at 100,000 cells per well. Cells were incubated with the indicated antibodies for 30 minutes on ice. […] Cells were analyzed using Cytoflex or MACSQuant flow cytometer. Assay was repeated twice.
# [7] = target: T5, soluble mouse TNFR2; assay: binding screen on soluble mouse TNFR2 (mouse cross-reactivity)
# [8] = target: T2, cynomolgus TNFR2-His tagged protein; assay: ELISA on coated cynomolgus TNFR2-His
# Outline: (§1)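 TNFR2-His ELISAs: human or cynomolgus protein coated at 1 μg/mL overnight at 4 °C, BSA-blocked, antibodies 1 h RT, anti-human HRP, TMB 3–5 min. Flow: 200,000 human TNFR2-CHO cells, antibody 1 h, anti-human IgG BV421 20 min. Blocking ELISA: TNFR-Fc coated 1 ug/mL, antibodies 1 h RT, TMB 5–7 min.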
# [9] = target: T1, human TNFR2 expressed on cells; assay: flow cytometry on CHO cells expressing human TNFR2
# Outline: as §1
# [10] = target: T3, human TNFR2-His tagged protein (soluble); assay: ELISA on coated human TNFR2-His
# Outline: as §1
# [11] = target: T6, TNFR2 PLAD or CRD1 peptide (aa 17-54 of …); assay: peptide-binding ELISA (potential peptide bin)
# [12] = target: T4, TNFR-Fc; assay: TNF-α blocking ELISA on coated TNFR-Fc
# Outline: as §1
# [13] = target: T7, human TNFR1-His tagged protein; assay: ELISA on coated TNFR1-His (1 ug/mL), OD 450 nm
# Description: TNFR1-His tagged protein was coated on ELISA plates at 1 μg/mL at 4° C. overnight. Plates were washed, blocked, and antibodies were added at indicated concentrations for 1 hour at RT. Antibodies were washed and detected with anti-human IgG HRP for 1 hour. Assay was developed using TMB substrate for 10 minutes.
Kd [1],EC50 [2],EC50 [3],EC50 [4],IC50 [5],IC50 [6],binding result [7],EC50 [8],EC50 [9],EC50 [10],binding result [11],IC50 [12],binding result [13],Binder
0.387 nM,0.587 nM,0.046 nM,0.051 nM,0.465 nM,7.02 nM,,,,,,,,"humanized antibody h600_25_9 (antibody, V domains shown) VH: EVQLVESGGGLVQPGGSLRLSCAASGFSLSTYDINWVRQAPGKGLEWVGIIYTGGITNFANWAKGRFTISRDNSKNTLYLQMNSLRAEDTAVYYCARGGYDSEGYVYPDAFDPWGQGTLVTVSS VL: DIQMTQSPSSLSASVGDRVTITCQASESISNLLAWYQQKPGKAPKLLIYRASILTSGVPSRFSGSGSGTDFTLTISSLQPEDFATYYCQHGYTGTNVQNVFGGGTKVEIK"
0.245 nM,0.377 nM,0.131 nM,0.149 nM,3.52 nM,0.447 nM,,,,,,,,"humanized antibody h600_24_2 (antibody, V domains shown) VH: EVQLVESGGGLVQPGGSLRLSCAASGFSFSVSYWICWVRQAPGKGLEWVACTDGGDGSSYYASWVNGRFTISRDNSKNTLYLQMNSLRAEDTAVYYCARDRSDVFNLWGQGTLVTVSS VL: DIQMTQSPSSLSASVGDRVTITCQAGQSIDSNLAWYQQKPGKAPKLLIYRASTLASGVPSRFSGSGSGTDFTLTISSLQPEDFATYYCQSFYVTISAMVDYPFGGGTKVEIK"
,,,,,,no binding,0.104 nM,0.277 nM,0.147 nM,binds,5.63 nM,,"chimeric antibody clone 6 (rab600_23_6) (antibody, V domains shown) VH: QEQLKESGGRLVTPGTPLTLTCTASGFSLSSYYVSWVRQAPGKGLEWIGIIHSDGSIYYATWAKGLFTISRTSTTVDLKATSLTTEDTATYFCVRGYPGYYTSTFNRLDLWGQGTLVTVSS VL: AYDMTQTPASVEVAVGGTVTIKCQASQTISNELSWYQQKSGQPPKLLIYRASTLASGVPSRFSGSGSGTEFTLTISGVECDDAATYYCQQGYTTNNVDNLFGGGTEVVVK"
,,,,,,no binding,4.04 nM,9.44 nM,7.39 nM,binds,,,"chimeric antibody clone 81 (rab600_23_81) (antibody, V domains shown) VH: QSLEESGGRLVTPGTPLTLTCTASGFSLSNYYVSWVRQAPGKGLEWIGIIETGGNLYYASWAKGRFSLSKTSTTVDLKITSPTAEDTATYFCVRGYPGYYTHTFNRLDLWGQGTLVTVSS VL: AYDMTQTPASVEVAVGGTVTIKCQASESIANELSWYQRKSGQPPKLLIYRASTLASGVPSRFKGSGSGTQFTLTISGVECDDAATYYCQQGYTTINIDNLFGGGTEVVVK"
12.1 nM,12.1 nM,1.86 nM,0.72 nM,,,,,,,,,binds,"humanized antibody clone 25-31 (h600_24_31) (antibody, V domains shown, its heavy-chain CDRs are those of rab600_25_31) VH: EVQLVESGGGLVQPGGSLRLSCAASGFSLSSYDMSWVRQAPGKGLEWVGYIWSSGSAYYATWAEGRFTISRDNSKNTLYLQMNSLRAEDTAVYYCARRYVGSSYDTWGQGTLVTVSS VL: DIQMTQSPSSLSASVGDRVTITCQSSQSVSSNNYLSWYQQKPGKAPKLLIYAASYLASGVPSRFSGSGSGTDFTLTISSLQPEDFATYYCLGDYDNDIDHAFGGGTKVEIK"
0.291 nM,0.408 nM,0.058 nM,0.098 nM,2.29 nM,0.567 nM,,,,,,,,"humanized antibody h600_24_124 (antibody, V domains shown) VH: EVQLVESGGGLVQPGGSLRLSCAASGIDFSSYGISWVRQAPGKGLEWVAYIYPDYGSTDYATWVNGRFTISLDNSKNTLYLQMNSLRAEDTAVYYCASGYASSSGYYDPKYFGLWGQGTLVTVSS VL: DIQMTQSPSSLSASVGDRVTITCRASEDIESYLAWYQQKPGKAPKLLIYDASDLASGVPSRFSGSGSGTDFTLTISSLQPEDFATYYCQHGFYTSRSDSVFGGGTKVEIK"
0.539 nM,0.672 nM,0.109 nM,0.131 nM,3.81 nM,0.566 nM,,,,,,,,"humanized antibody h600_HB_55F6.6 (antibody, V domains shown, also called 55F6.1) VH: EVQLVESGGGLVQPGGSLRLSCAASGFSFTNNYYMCWVRQAPGKGLEWVGCIYPSIVGPTYYANWAKGRFTISRDNSKNTLYLQMNSLRAEDTAVYYCVRDRYDDYGDYFNLWGQGTLVTVSS VL: DIQMTQSPSSLSASVGDRVTITCQASQSIYNYLSWYQQKPGKAPKRLIYYASTLASGVPSRFSGSGSGTDFTLTISSLQPEDFATYYCQSNSGVNGNRYGNAFGGGTKVEIK"
0.201 nM,0.239 nM,0.054 nM,0.091 nM,2.96 nM,0.323 nM,,,,,,,binds,"humanized antibody h600_HB_11D7.1 (antibody, V domains shown) VH: EVQLVESGGGLVQPGGSLRLSCAASGFDFSRYYMSWVRQAPGKGLEWVGYIDPIFGNTYYASWVNGRFTISSDNAKNSLYLQMNSLRAEDTAVYYCARDGDAGYDGYGYGTDLWGQGTLVTVSS VL: DIQMTQSPSSLSASVGDRVTITCQASENIYSGLAWYQQKPGKVPKLLIVSAFTLASGVPSRFSGSGSGTDFTLTISSLQPEDVATYYCQTYYYGSVTYFNAFGGGTKVEIK"
